The values below come from article PMC8699718, “A structurally conserved site in AUP1 binds the E2 enzyme UBE2G2 and is essential for ER-associated degradation” (PLoS Biology, 2021).

Assay [1] relates to UBE2G2. The assay is described as follows: CHX chase: UBE2G2 turnover in HT1080 AUP1 KO cells. To be noted: GFP fusion transfected with MYC-UBE2G2, HT1080 AUP1 KO, compared with GFP-SCR. It is filed as cell-based, human. The protocol:
Fig 7 G2BR^AUP1 protects UBE2G2 from degradation. (A) Indicated cells were assessed for steady state levels and turnover of endogenous UBE2G2 by CHX chase. (B) Transcript levels of endogenous UBE2G2 in AUP1 KO cells compared to HT1080 as determined by qPCR. Mean and standard deviation from three independent experiments is shown. […] (D) AUP1 KO cells were transfected with plasmids encoding MYC-UBE2G2 and GFP fusions of either a scrambled G2BR (SCR), G2BR^gp78, or G2BR^AUP1, and the turnover of UBE2G2 was assessed. (E) Relative abundance of gp78 (left panel) and AUP1 (right panel) in HT1080 cells was determined by resolving indicated amounts (in pmoles) of purified GST-gp78 (aa 429 to 611) or GST-AUP1 (aa 61 to 410) fusions alongside approximately 1 × 10^4 cellular equivalents of cell lysate and immunoblotting with gp78 or AUP1 antibodies. For each antibody, the amount of immunoreactivity in the lysate was compared to a defined quantity of a GST fusion protein of gp78 or AUP1 spanning the epitope recognized by the probing antibody. […] The data underlying this figure can be found in S1 and S8 Data. aa, amino acid; AUP1, ancient ubiquitous protein 1; CHX, cycloheximide; G2BR, UBE2G2 Binding Region; KO, knockout; qPCR, quantitative polymerase chain reaction; WT, wild type. […]

Assay [2] has as its target T1, purified UBE2G2 (UniProt P60604 1-165, ^15N-labeled for NMR).
T1 construct: UBE2G2, purified recombinant protein used for ITC, FP, MST and NMR; also called apo-UBE2G2; ^15N-labeled UBE2G2
T1 sequence (looked up): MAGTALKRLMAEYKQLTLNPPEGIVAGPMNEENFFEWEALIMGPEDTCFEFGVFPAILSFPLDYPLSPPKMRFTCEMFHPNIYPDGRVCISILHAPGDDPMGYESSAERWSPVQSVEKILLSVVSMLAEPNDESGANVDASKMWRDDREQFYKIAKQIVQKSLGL
Kind of assay: ITC; 30 μM G2BR peptide injected into 3 μM UBE2G2 in the cell, PBS pH 7.4, 25°C, one set of sites model. As to conditions: both partners purified. (In general: Isothermal titration calorimetry measures the heat released or taken up as one component is titrated into another.)

Assay [3] has as its target T2, purified UBE2G2 (UniProt P60604 1-165, ^15N-labeled for NMR).
T2 chain: T1 sequence (looked up)
Kind of assay: FP.

For assay [4], the target named is T2, purified UBE2G2. Kind of assay: MST.
For assay [5], the target named is T3, UBE2G2 (Homo sapiens, UniProt P60604).
T3 construct: made in house
T3 sequence (P60604 1-165): T1 sequence (looked up)
Kind of assay: GST pulldown of in vitro translated 35S-UBE2G2. It is filed as binding. To be noted: GST-AUP1 aa 292 to 410 on glutathione beads, ~3 pmol GST fusion, ~0.2 pmol E2, overnight 4°C, pH 7.4. The procedure:
Fig 3 The AUP1–UBE2G2 interaction is required for ERAD. (A) Equimolar amounts of GST-AUP1 (aa 292 to 410) or GST were immobilized on glutathione beads and binding to the indicated in vitro translated ^35S-labeled E2s was assessed. Left panel is 5% of input used for binding. E2s are referred to by their unique alpha-numeric designation (e.g., UBE2G1 and UBE2J1). (B) HT1080 or UBE2G2 KO cells were transfected with INSIG-1-MYC and degradation assessed by CHX chase. […] (D) Cells were transfected with NHK-MYC and HA-ubiquitin and ubiquitination of NHK assessed following proteasome inhibition and IP (right panel). Left panel is 10% of total cell lysate used for IP, indicating no discernable change in total ubiquitination. (E) Levels of endogenous HRD1 were monitored by CHX chase in the indicated cell types. (F) Ubiquitination of endogenous HRD1 was assessed following IP with HRD1 antiserum. Arrow in upper panel indicates migration of unmodified HRD1. Control immunoprecipitates using rabbit serum are shown for comparison. The data underlying this figure can be found in S1 Data. aa, amino acid; AUP1, ancient ubiquitous protein 1; CHX, cycloheximide; ERAD, endoplasmic reticulum–associated degradation; IP, immunoprecipitation; KO, knockout; WT, wild type.
(§1) Fig 6 Disruption of UBE2G2:G2BR^AUP1 interaction abrogates AUP1 function in cells. (A) GST or indicated GST-AUP1 fusions (aa 292 to 410, expression shown in Coomassie-stained gel) were immobilized on glutathione beads and binding to ^35S-UBE2G2 was assessed as in Fig 3A. Mutations include 2A (R382A/Q383A), 2E (R382E/Q383E), and 5E (R382E/Q383E/K390E/R398E/R400E). (B) AUP1 KO cells were transfected with NHK-HA and forms of full-length AUP1-FLAG with the indicated point mutations from (A) and NHK degradation assessed by CHX chase. (C) Binding assay performed as in (A) with AUP1 mutants predicted to disrupt hydrophobic interactions with UBE2G2. (D) Cellular assay performed as in (B) with AUP1-FLAG mutants that disrupt interactions with UBE2G2 in vitro in (C). The data underlying this figure can be found in S1 Data. aa, amino acid; AUP1, ancient ubiquitous protein 1; CHX, cycloheximide; G2BR, UBE2G2 Binding Region; KO, knockout; WT, wild type.
In vitro translated ^35S methionine-labeled E2s were generated using the E. coli T7-S30 Extract System (Promega) and excess ^35S methionine was removed by desalting twice with Zeba Spin Desalting Columns (Thermo Scientific). GST fusion proteins were quantified by Coomassie blue staining. Moreover, 0.1 μg of GST fusion protein (approximately 3 pmol) was prebound to GS 4B (GE Healthcare) and then incubated with approximately 10^5 cpm of ^35S methionine-labeled E2 (approximately 0.2 pmol) in 200 μl Binding Buffer (25 mM Tris-HCl, pH 7.4, 50 mM NaCl, 5 mM DTT, 0.5% IGEPAL CA-630) overnight at 4°C. Beads were extensively washed in Binding Buffer, resolved on Bis/Tris polyacrylamide gels under reducing conditions, dried and visualized on a Typhoon FLA 7000 (GE Healthcare). Binding was quantified using ImageQuant Software.

In assay [6] the test system is NHK (Null Hong Kong variant of alpha1-antitrypsin). Kind of assay: CHX chase: NHK degradation in HT1080 AUP1 KO cells. It is filed as cell-based, human. As to conditions: full-length or deleted AUP1-FLAG re-expressed in HT1080 AUP1 KO cells, CHX 50 μg/mL. The procedure: Fig 1 The G2BR of AUP1 is required for ERAD of NHK. (A) HT1080 or cells in which HRD1 was knocked out by CRISPR/Cas-9 (HRD1 KO) were transfected with plasmid encoding carboxyl-terminally HA-tagged NHK. Cells were treated with CHX for the indicated times to inhibit protein synthesis and NHK-HA degradation monitored by western blot. GFP and HSP60 serve as transfection efficiency and gel loading controls, respectively. (B) HT1080 or cells in which either AUP1 or gp78 was knocked out (AUP1 KO or gp78 KO) were transfected with NHK-HA and their degradation assessed. (C) AUP1 KO cells were transfected with NHK-HA and empty vector or plasmid encoding carboxyl-terminally FLAG-tagged AUP1 and NHK degradation assessed. (D) Indicated cells were transfected with plasmid encoding carboxyl-terminally MYC-tagged INSIG-1 and assessed for INSIG-1 degradation. (E) Schematic representation of AUP1 in the ER membrane and deletion mutants used in subsequent experiments. Amino acid residues are numbered spanning each domain. (F) AUP1 KO cells were transfected with NHK-HA and plasmids encoding the indicated FLAG-tagged AUP1 WT or deletion mutants and assessed for NHK degradation. (G) HEK293 (Parental) or HEK293 AUP1 KO cells were assessed for degradation of NHK-HA. (H) HEK293 AUP1 KO cells were assessed for NHK-HA degradation as in (F). Markers represent apparent molecular weight in kDa. The data underlying this figure can be found in S1 Data. aa, amino acid; AUP1, ancient ubiquitous protein 1; CHX, cycloheximide; ER, endoplasmic reticulum; ERAD, endoplasmic reticulum–associated degradation; G2BR, UBE2G2 Binding Region; KO, knockout; NHK, Null Hong Kong; WT, wild type.
as §1
Fig 8 Recruitment of UBE2G2 to the ER membrane and activation by G2BR^AUP1 is required for ERAD. (A) HT1080 or AUP1 KO cells were transfected with NHK-HA and either empty vector or MYC-UBE2G2 and NHK turnover assessed by CHX chase. (B) AUP1 KO cells were transfected with NHK-HA and GFP fusions of either a scrambled G2BR sequence (SCR) or G2BR^AUP1 and NHK turnover and levels of endogenous UBE2G2 assessed. Luciferase and β-actin served as transfection efficiency and gel loading controls, respectively. (C) AUP1 KO cells were transfected with NHK-HA, MYC-UBE2G2, and either GFP-SCR or GFP-G2BR^AUP1 and NHK turnover assessed. (D) Membrane fractionation was performed on HT1080 or AUP1 KO cells transfected with either empty vector or AUP1-FLAG and localization of UBE2G2 assessed by western blotting. Localization of β-actin (cytosol) and Calnexin (ER membrane) were used as controls for cytosolic (C) and membrane (M) fractions, respectively. (E) Membrane fractionation of AUP1 KO cells transfected with either MYC-UBE2G2 or TM-UBE2G2. (F) HT1080 cells were transfected with TM-UBE2G2 and its localization assessed by confocal microscopy. Images shown are from an optical section after deconvolution. HA-tagged UBE2J2, an ER-localized E2, serves as an ER marker. […]

Ends that are not written are not given here.

As to “GFP-G2BR^gp78: GFP fusion of gp78 aa 574 to 600”, in assay [1], the “UBE2G2 degradation and steady state level” value was “protected UBE2G2 from degradation and increased the steady state level of this E2”.

B1: G2BR^gp78 peptide (aa 574 to 600, with an added N-terminal Trp) (peptide)
peptide: WSADERQRMLVQRKDELLQQARKRFLNK
notes: N-terminal Trp residue added for peptide quantification; Natural stretch with one extra N-terminal Trp added for quantification; also called gp78 G2BR; source: synthetic peptide (GenScript)
In turn, B1 yielded a Kd in assay [2] of 2.7 nM.
With SSWARQESLQERKQALYEYARRRFTER (also: FITC label, position not given here) [FITC-labeled G2BR^AUP1 peptide], the figures for the Kd in assay [3] and in assay [4] were 7.1 nM and 4.3 nM, respectively.

B2: G2BR^AUP1 peptide (aa 378 to 404) (peptide)
peptide: SSWARQESLQERKQALYEYARRRFTER
notes: also called AUP1 G2BR; source: synthetic peptide (GenScript)
For the molecule B2, the dissociation constant Kd in assay [2] was 3.1 nM.
As to WSADERQRMLVQRKDELLQQARKRFLNK (also: FITC label, position not given here) [FITC-labeled G2BR^gp78 peptide], the Kd in assay [3] was 15.1 nM; in assay [4] it was 10 nM.

B3: L386D/Y394D: AUP1 point mutant; GST-AUP1 aa 292 to 410 in vitro, full-length AUP1-FLAG in cells (protein)
chain: SPDVQLATLAQRVKEVLPHVPLGVIQRDLAKTGCVDLTITNLLEGAVAFMPEDITKGTQSLPTASASKFPSSGPVTPQPTALTFAKSSWARQESDQERKQALDEYARRRFTERRAQEAD
modifications: left off: GST, end not stated, kept
notes: AUP1 point mutant; GST-AUP1 aa 292 to 410 in vitro, full-length AUP1-FLAG in cells
On to B3, for which the “binding to UBE2G2” value in assay [5] was “eliminated detectable binding to UBE2G2”. For the same molecule, the “restoration of NHK degradation” value in assay [6] is listed as “failed to restore NHK degradation”.

In general, Kd refers to the free concentration of one partner at which half of the binding sites on the other are occupied at equilibrium, for simple one-to-one binding. Lower therefore signals higher affinity.
